T1: FcγRIIb (human, UniProt P31994 43-217)
T1 construct: extracellular domain; also called FcgRIIb; 2b
T1 sequence (looked up): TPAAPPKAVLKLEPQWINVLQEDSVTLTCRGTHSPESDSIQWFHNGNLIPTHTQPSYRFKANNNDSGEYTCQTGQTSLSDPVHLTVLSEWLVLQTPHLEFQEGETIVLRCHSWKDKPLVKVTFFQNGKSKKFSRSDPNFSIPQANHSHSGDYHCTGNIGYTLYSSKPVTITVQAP


Experiments:
FcγRIa [1] = biological target: T2, FcγRIa (human, UniProt P12314 16-292); assay: SPR (Biacore); He/Con_1a (FcgRIa) divided by He/Con_2b (FcgRIIb)
T2 construct: extracellular domain; also called FcgRI; FcgRIa
Procedure: The heterodimerized antibodies He Abs in which one of the H chains was introduced with an alteration were assayed for their binding activities to each activating FcγR and inhibitory FcγR according to the method described in Example 4. […] The activating FcγRs in FIGS. 26, 27, 28, and 29 are FcγRIa, FcγRIIa (R), FcγRIIa (H), and FcγRIIIa, respectively.
Analysis of interaction between objective antibody and the FcγR was carried out using Biacore T100 (GE Healthcare). HBS-EP+ (GE Healthcare) was used as the running buffer, and the measurement temperature was set to 25° C. Chips produced by immobilizing the antigen peptide by the amine coupling method to a Series S Sencor Chip CM5 (GE Healthcare), or alternatively, chips produced by allowing preliminarily biotinylated antigen peptides to interact with and immobilize onto a Series S Sensor Chip SA (certified) (GE Healthcare) were used. Antibodies of interest were captured onto an antigen peptide-immobilized chip, and allowed to interact to each FcγR diluted with running buffer. To regenerate and repeatedly use the chip, the antibodies captured on the chip were washed off by reacting 10 mM glycine-HCl, pH 1.5.

FcγRIIb = biological target: T1, FcγRIIb; assay: SPR (Biacore), relative to GpH7-A5/GpH7-B3/GpL16-k0 = 100
FcγRIa [2] = biological target: T2, FcγRIa; assay: as above

T2 sequence (P12314 16-292): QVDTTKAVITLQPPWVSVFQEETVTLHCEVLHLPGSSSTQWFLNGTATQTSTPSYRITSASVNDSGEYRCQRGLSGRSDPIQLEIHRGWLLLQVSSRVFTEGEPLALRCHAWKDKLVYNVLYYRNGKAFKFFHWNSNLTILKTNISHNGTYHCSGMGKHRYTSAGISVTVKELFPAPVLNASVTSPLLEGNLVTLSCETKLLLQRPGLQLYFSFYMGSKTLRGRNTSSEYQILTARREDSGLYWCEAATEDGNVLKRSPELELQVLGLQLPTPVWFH

Binder	Ia/IIb He_1a/2b (FcγRIa [1])	He/Con_2b (IIb binding) (FcγRIIb)	He/Con_1a (Ia binding) (FcγRIa [2])
GpH7-A5/GpH7-B3 variant Y300_01G/GpL16-k0 (antibody, human IgG1, kappa, heterodimerized IgG1, one H chain mutated; also called He Ab) heavy 1: not shown heavy 2: not shown light: DIVMTQSPLSLPVTPGEPASISCQASESLVHSNRNTYLHWYLQKPGQSPQLLIYKVSNRFSGVPDRFSGSGSGTDFTLKISRVEAEDVGVYYCSQNTHVPPTFGQGTKVEIERTVAAPSVFIFPPSDEQLKSGTASVVCLLNNFYPREAKVQWKVDNALQSGNSQESVTEQDSKDSTYSLSSTLTLSKADYEKHKVYACEVTHQGLSSPVTKSFNRGEC	2.4	48.4 relative (control = 100)	116 relative (control = 100)
GpH7-A5/GpH7-B3 variant A327_16H/GpL16-k0 (antibody, human IgG1, kappa, heterodimerized IgG1, one H chain mutated; also called He Ab) heavy 1: not shown heavy 2: not shown light: DIVMTQSPLSLPVTPGEPASISCQASESLVHSNRNTYLHWYLQKPGQSPQLLIYKVSNRFSGVPDRFSGSGSGTDFTLKISRVEAEDVGVYYCSQNTHVPPTFGQGTKVEIERTVAAPSVFIFPPSDEQLKSGTASVVCLLNNFYPREAKVQWKVDNALQSGNSQESVTEQDSKDSTYSLSSTLTLSKADYEKHKVYACEVTHQGLSSPVTKSFNRGEC	1.52	63.5 relative (control = 100)	96.5 relative (control = 100)
GpH7-A5/GpH7-B3 variant A327_06M/GpL16-k0 (antibody, human IgG1, kappa, heterodimerized IgG1, one H chain mutated; also called He Ab) heavy 1: not shown heavy 2: not shown light: DIVMTQSPLSLPVTPGEPASISCQASESLVHSNRNTYLHWYLQKPGQSPQLLIYKVSNRFSGVPDRFSGSGSGTDFTLKISRVEAEDVGVYYCSQNTHVPPTFGQGTKVEIERTVAAPSVFIFPPSDEQLKSGTASVVCLLNNFYPREAKVQWKVDNALQSGNSQESVTEQDSKDSTYSLSSTLTLSKADYEKHKVYACEVTHQGLSSPVTKSFNRGEC	1.74	59.5 relative (control = 100)	103 relative (control = 100)
GpH7-A5/GpH7-B3 variant A327_05P/GpL16-k0 (antibody, human IgG1, kappa, heterodimerized IgG1, one H chain mutated; also called He Ab) heavy 1: not shown heavy 2: not shown light: DIVMTQSPLSLPVTPGEPASISCQASESLVHSNRNTYLHWYLQKPGQSPQLLIYKVSNRFSGVPDRFSGSGSGTDFTLKISRVEAEDVGVYYCSQNTHVPPTFGQGTKVEIERTVAAPSVFIFPPSDEQLKSGTASVVCLLNNFYPREAKVQWKVDNALQSGNSQESVTEQDSKDSTYSLSSTLTLSKADYEKHKVYACEVTHQGLSSPVTKSFNRGEC	1.43	69.3 relative (control = 100)	99.3 relative (control = 100)
GpH7-A5/GpH7-B3 variant A327_19Q/GpL16-k0 (antibody, human IgG1, kappa, heterodimerized IgG1, one H chain mutated; also called He Ab) heavy 1: not shown heavy 2: not shown light: DIVMTQSPLSLPVTPGEPASISCQASESLVHSNRNTYLHWYLQKPGQSPQLLIYKVSNRFSGVPDRFSGSGSGTDFTLKISRVEAEDVGVYYCSQNTHVPPTFGQGTKVEIERTVAAPSVFIFPPSDEQLKSGTASVVCLLNNFYPREAKVQWKVDNALQSGNSQESVTEQDSKDSTYSLSSTLTLSKADYEKHKVYACEVTHQGLSSPVTKSFNRGEC	1.78	54.2 relative (control = 100)	96.2 relative (control = 100)
GpH7-A5/GpH7-B3 variant A327_13S/GpL16-k0 (antibody, human IgG1, kappa, heterodimerized IgG1, one H chain mutated; also called He Ab) heavy 1: not shown heavy 2: not shown light: DIVMTQSPLSLPVTPGEPASISCQASESLVHSNRNTYLHWYLQKPGQSPQLLIYKVSNRFSGVPDRFSGSGSGTDFTLKISRVEAEDVGVYYCSQNTHVPPTFGQGTKVEIERTVAAPSVFIFPPSDEQLKSGTASVVCLLNNFYPREAKVQWKVDNALQSGNSQESVTEQDSKDSTYSLSSTLTLSKADYEKHKVYACEVTHQGLSSPVTKSFNRGEC	1.29	79.5 relative (control = 100)	102 relative (control = 100)
GpH7-A5/GpH7-B3 variant A327_08L/GpL16-k0 (antibody, human IgG1, kappa, heterodimerized IgG1, one H chain mutated; also called He Ab) heavy 1: not shown heavy 2: not shown light: DIVMTQSPLSLPVTPGEPASISCQASESLVHSNRNTYLHWYLQKPGQSPQLLIYKVSNRFSGVPDRFSGSGSGTDFTLKISRVEAEDVGVYYCSQNTHVPPTFGQGTKVEIERTVAAPSVFIFPPSDEQLKSGTASVVCLLNNFYPREAKVQWKVDNALQSGNSQESVTEQDSKDSTYSLSSTLTLSKADYEKHKVYACEVTHQGLSSPVTKSFNRGEC	1.56	63.1 relative (control = 100)	98.6 relative (control = 100)
GpH7-A5/GpH7-B3 variant A327_11K/GpL16-k0 (antibody, human IgG1, kappa, heterodimerized IgG1, one H chain mutated; also called He Ab) heavy 1: not shown heavy 2: not shown light: DIVMTQSPLSLPVTPGEPASISCQASESLVHSNRNTYLHWYLQKPGQSPQLLIYKVSNRFSGVPDRFSGSGSGTDFTLKISRVEAEDVGVYYCSQNTHVPPTFGQGTKVEIERTVAAPSVFIFPPSDEQLKSGTASVVCLLNNFYPREAKVQWKVDNALQSGNSQESVTEQDSKDSTYSLSSTLTLSKADYEKHKVYACEVTHQGLSSPVTKSFNRGEC	6.87	12.5 relative (control = 100)	86.1 relative (control = 100)
GpH7-A5/GpH7-B3 variant A327_15Y/GpL16-k0 (antibody, human IgG1, kappa, heterodimerized IgG1, one H chain mutated; also called He Ab) heavy 1: not shown heavy 2: not shown light: DIVMTQSPLSLPVTPGEPASISCQASESLVHSNRNTYLHWYLQKPGQSPQLLIYKVSNRFSGVPDRFSGSGSGTDFTLKISRVEAEDVGVYYCSQNTHVPPTFGQGTKVEIERTVAAPSVFIFPPSDEQLKSGTASVVCLLNNFYPREAKVQWKVDNALQSGNSQESVTEQDSKDSTYSLSSTLTLSKADYEKHKVYACEVTHQGLSSPVTKSFNRGEC	1.58	60.8 relative (control = 100)	96.3 relative (control = 100)
GpH7-A5/GpH7-B3 variant A327_04F/GpL16-k0 (antibody, human IgG1, kappa, heterodimerized IgG1, one H chain mutated; also called He Ab) heavy 1: not shown heavy 2: not shown light: DIVMTQSPLSLPVTPGEPASISCQASESLVHSNRNTYLHWYLQKPGQSPQLLIYKVSNRFSGVPDRFSGSGSGTDFTLKISRVEAEDVGVYYCSQNTHVPPTFGQGTKVEIERTVAAPSVFIFPPSDEQLKSGTASVVCLLNNFYPREAKVQWKVDNALQSGNSQESVTEQDSKDSTYSLSSTLTLSKADYEKHKVYACEVTHQGLSSPVTKSFNRGEC	1.56	63.7 relative (control = 100)	99.1 relative (control = 100)
GpH7-A5/GpH7-B3 variant A327_12R/GpL16-k0 (antibody, human IgG1, kappa, heterodimerized IgG1, one H chain mutated; also called He Ab) heavy 1: not shown heavy 2: not shown light: DIVMTQSPLSLPVTPGEPASISCQASESLVHSNRNTYLHWYLQKPGQSPQLLIYKVSNRFSGVPDRFSGSGSGTDFTLKISRVEAEDVGVYYCSQNTHVPPTFGQGTKVEIERTVAAPSVFIFPPSDEQLKSGTASVVCLLNNFYPREAKVQWKVDNALQSGNSQESVTEQDSKDSTYSLSSTLTLSKADYEKHKVYACEVTHQGLSSPVTKSFNRGEC	9.64		86.7 relative (control = 100)

Second part, the binder after the results:

Ia/IIb He_1a/2b (FcγRIa [1])	He/Con_2b (IIb binding) (FcγRIIb)	He/Con_1a (Ia binding) (FcγRIa [2])	Binder
1.5	64.4 relative (control = 100)	96.8 relative (control = 100)	GpH7-A5/GpH7-B3 variant N325_02A/GpL16-k0 (antibody, human IgG1, kappa, heterodimerized IgG1, one H chain mutated; also called He Ab) heavy 1: not shown heavy 2: not shown light: DIVMTQSPLSLPVTPGEPASISCQASESLVHSNRNTYLHWYLQKPGQSPQLLIYKVSNRFSGVPDRFSGSGSGTDFTLKISRVEAEDVGVYYCSQNTHVPPTFGQGTKVEIERTVAAPSVFIFPPSDEQLKSGTASVVCLLNNFYPREAKVQWKVDNALQSGNSQESVTEQDSKDSTYSLSSTLTLSKADYEKHKVYACEVTHQGLSSPVTKSFNRGEC
1.43	69.1 relative (control = 100)	99.1 relative (control = 100)	GpH7-A5/GpH7-B3 variant N325_19Q/GpL16-k0 (antibody, human IgG1, kappa, heterodimerized IgG1, one H chain mutated; also called He Ab) heavy 1: not shown heavy 2: not shown light: DIVMTQSPLSLPVTPGEPASISCQASESLVHSNRNTYLHWYLQKPGQSPQLLIYKVSNRFSGVPDRFSGSGSGTDFTLKISRVEAEDVGVYYCSQNTHVPPTFGQGTKVEIERTVAAPSVFIFPPSDEQLKSGTASVVCLLNNFYPREAKVQWKVDNALQSGNSQESVTEQDSKDSTYSLSSTLTLSKADYEKHKVYACEVTHQGLSSPVTKSFNRGEC
7.81	10.4 relative (control = 100)	80.9 relative (control = 100)	GpH7-A5/GpH7-B3 variant N325_11K/GpL16-k0 (antibody, human IgG1, kappa, heterodimerized IgG1, one H chain mutated; also called He Ab) heavy 1: not shown heavy 2: not shown light: DIVMTQSPLSLPVTPGEPASISCQASESLVHSNRNTYLHWYLQKPGQSPQLLIYKVSNRFSGVPDRFSGSGSGTDFTLKISRVEAEDVGVYYCSQNTHVPPTFGQGTKVEIERTVAAPSVFIFPPSDEQLKSGTASVVCLLNNFYPREAKVQWKVDNALQSGNSQESVTEQDSKDSTYSLSSTLTLSKADYEKHKVYACEVTHQGLSSPVTKSFNRGEC
4.41	19.1 relative (control = 100)	84.2 relative (control = 100)	GpH7-A5/GpH7-B3 variant N325_12R/GpL16-k0 (antibody, human IgG1, kappa, heterodimerized IgG1, one H chain mutated; also called He Ab) heavy 1: not shown heavy 2: not shown light: DIVMTQSPLSLPVTPGEPASISCQASESLVHSNRNTYLHWYLQKPGQSPQLLIYKVSNRFSGVPDRFSGSGSGTDFTLKISRVEAEDVGVYYCSQNTHVPPTFGQGTKVEIERTVAAPSVFIFPPSDEQLKSGTASVVCLLNNFYPREAKVQWKVDNALQSGNSQESVTEQDSKDSTYSLSSTLTLSKADYEKHKVYACEVTHQGLSSPVTKSFNRGEC
1.36	70.1 relative (control = 100)	95.1 relative (control = 100)	GpH7-A5/GpH7-B3 variant N325_16H/GpL16-k0 (antibody, human IgG1, kappa, heterodimerized IgG1, one H chain mutated; also called He Ab) heavy 1: not shown heavy 2: not shown light: DIVMTQSPLSLPVTPGEPASISCQASESLVHSNRNTYLHWYLQKPGQSPQLLIYKVSNRFSGVPDRFSGSGSGTDFTLKISRVEAEDVGVYYCSQNTHVPPTFGQGTKVEIERTVAAPSVFIFPPSDEQLKSGTASVVCLLNNFYPREAKVQWKVDNALQSGNSQESVTEQDSKDSTYSLSSTLTLSKADYEKHKVYACEVTHQGLSSPVTKSFNRGEC
3.42	26 relative (control = 100)	88.8 relative (control = 100)	GpH7-A5/GpH7-B3 variant N325_05P/GpL16-k0 (antibody, human IgG1, kappa, heterodimerized IgG1, one H chain mutated; also called He Ab) heavy 1: not shown heavy 2: not shown light: DIVMTQSPLSLPVTPGEPASISCQASESLVHSNRNTYLHWYLQKPGQSPQLLIYKVSNRFSGVPDRFSGSGSGTDFTLKISRVEAEDVGVYYCSQNTHVPPTFGQGTKVEIERTVAAPSVFIFPPSDEQLKSGTASVVCLLNNFYPREAKVQWKVDNALQSGNSQESVTEQDSKDSTYSLSSTLTLSKADYEKHKVYACEVTHQGLSSPVTKSFNRGEC
